Reference: US20210292396A1

Assays:
[1] = molecular target: HIV Env of isolate CNE20 (HIV); test: cell-based or functional assay
[2] = molecular target: HIV Env of isolate CNE30 (HIV); test: cell-based or functional assay

B1: ePGT121.15.H2.L1 (antibody, V domains shown)
VH: QMQLQESGPGLVKPGETLSLTCSVSGASISSSYWSWLRETPGKGLEWIGYTHHSGDTNYAPSLKSRVHLGLHPSKNQVSLSLTSVTAADTAVYYCARTLHGRRIYGVVAFNEWFTYFYWEVWGKGTQVTVSS
VL: SDISVAPGETVRISCGGESIGSRAVQWYQHRAGQAPKLIIYNNQDRPPGIPERFSGSPDIDFGTTATLTITNVEAGDEATYYCHIWDSRRPTNWVFGGGTTLTVL
B1 was tested. Which neutralization (Table 6 value) [1] did it give?
The neutralization (Table 6 value) was 0.000538.

What about the neutralization (Table 6 value) [2] of the same binder?
Its neutralization (Table 6 value) is 0.00312.
